Assay results as given in patent US20240261333A1 (published 2024).

What was measured:
Test in all cases: co-IP with anti-FLAG, mass spectrometry; lysate of cells with N-FLAG B3GNT2
MAGT1 = target: T1, MAGT1 (human, UniProt Q9H0U3 30-335, limits assumed)
T1 construct: also called NP_115497.4
T1 sequence (looked up): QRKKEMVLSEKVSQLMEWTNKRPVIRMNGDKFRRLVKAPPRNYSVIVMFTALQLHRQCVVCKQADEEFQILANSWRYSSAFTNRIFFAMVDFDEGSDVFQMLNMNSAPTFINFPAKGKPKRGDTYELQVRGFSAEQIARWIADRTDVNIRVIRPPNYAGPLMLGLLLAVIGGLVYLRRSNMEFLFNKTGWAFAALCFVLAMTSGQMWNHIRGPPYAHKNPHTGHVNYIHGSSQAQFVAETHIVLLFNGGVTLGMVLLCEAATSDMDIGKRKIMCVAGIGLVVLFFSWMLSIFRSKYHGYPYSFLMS

RPL32 = RPL32 (human, UniProt P62910 2-135)
NPM1 = target: T2, NPM1 (human, UniProt P06748 1-294)
T2 construct: also called NP_001341935.1 (+1)

RPL9 = RPL9 (human, UniProt P32969 1-192)
CCT7 = target: T3, CCT7 (human, UniProt Q99832-3 1-499, limits assumed)
T3 construct: also called NP_001159757.1 (+1)
T3 sequence (looked up): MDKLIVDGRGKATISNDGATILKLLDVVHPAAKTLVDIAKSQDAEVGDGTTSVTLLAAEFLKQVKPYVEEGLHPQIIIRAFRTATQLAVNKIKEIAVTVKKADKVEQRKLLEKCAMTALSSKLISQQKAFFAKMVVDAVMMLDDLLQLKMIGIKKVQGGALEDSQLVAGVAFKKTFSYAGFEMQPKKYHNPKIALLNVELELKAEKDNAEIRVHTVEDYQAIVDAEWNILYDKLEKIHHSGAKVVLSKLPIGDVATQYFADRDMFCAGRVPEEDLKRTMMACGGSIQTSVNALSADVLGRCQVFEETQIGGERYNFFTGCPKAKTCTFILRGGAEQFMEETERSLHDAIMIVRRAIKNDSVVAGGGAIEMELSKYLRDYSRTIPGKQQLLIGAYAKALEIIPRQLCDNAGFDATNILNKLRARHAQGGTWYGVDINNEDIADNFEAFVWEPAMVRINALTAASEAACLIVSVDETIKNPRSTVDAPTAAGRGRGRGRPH

PJA2 = target: T4, PJA2 (human, UniProt O43164 2-708)
T4 construct: also called NP_055634.3
T4 sequence (looked up): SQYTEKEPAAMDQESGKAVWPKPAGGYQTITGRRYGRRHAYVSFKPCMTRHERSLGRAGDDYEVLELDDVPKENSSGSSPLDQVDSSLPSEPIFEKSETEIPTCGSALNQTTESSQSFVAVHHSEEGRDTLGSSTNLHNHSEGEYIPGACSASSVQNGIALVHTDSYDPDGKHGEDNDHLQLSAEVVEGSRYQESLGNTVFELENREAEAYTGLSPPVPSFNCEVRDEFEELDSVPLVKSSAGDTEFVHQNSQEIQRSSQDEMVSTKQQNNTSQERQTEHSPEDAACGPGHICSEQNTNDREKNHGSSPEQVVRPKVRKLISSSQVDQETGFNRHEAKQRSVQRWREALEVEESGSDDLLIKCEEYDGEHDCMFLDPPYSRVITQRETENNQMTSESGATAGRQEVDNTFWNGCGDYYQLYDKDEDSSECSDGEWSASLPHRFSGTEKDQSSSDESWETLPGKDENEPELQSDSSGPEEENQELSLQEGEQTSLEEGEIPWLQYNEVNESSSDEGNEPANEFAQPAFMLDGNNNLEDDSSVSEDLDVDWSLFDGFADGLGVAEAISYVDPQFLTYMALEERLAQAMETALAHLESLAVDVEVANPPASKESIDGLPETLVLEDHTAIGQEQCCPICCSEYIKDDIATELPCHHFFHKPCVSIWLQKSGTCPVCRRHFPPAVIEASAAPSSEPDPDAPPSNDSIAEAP

Measured: co-IP mass spectrometry count

T2 sequence (P06748 whole entry): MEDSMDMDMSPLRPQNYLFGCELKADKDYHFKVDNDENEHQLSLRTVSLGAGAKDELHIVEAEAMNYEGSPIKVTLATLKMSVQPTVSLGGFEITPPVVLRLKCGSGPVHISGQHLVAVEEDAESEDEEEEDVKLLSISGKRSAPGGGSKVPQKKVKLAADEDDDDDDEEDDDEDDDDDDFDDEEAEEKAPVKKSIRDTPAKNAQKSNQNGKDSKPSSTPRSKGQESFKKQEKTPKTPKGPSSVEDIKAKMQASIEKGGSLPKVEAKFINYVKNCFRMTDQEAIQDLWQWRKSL

B1: N-terminal FLAG tagged B3GNT2 (enzyme, human, UniProt Q9NY97 1-397, looked up)
chain: MSVGRRRIKLLGILMMANVFIYFIMEVSKSSSQEKNGKGEVIIPKEKFWKISTPPEAYWNREQEKLNRQYNPILSMLTNQTGEAGRLSNISHLNYCEPDLRVTSVVTGFNNLPDRFKDFLLYLRCRNYSLLIDQPDKCAKKPFLLLAIKSLTPHFARRQAIRESWGQESNAGNQTVVRVFLLGQTPPEDNHPDLSDMLKFESEKHQDILMWNYRDTFFNLSLKEVLFLRWVSTSCPDTEFVFKGDDDVFVNTHHILNYLNSLSKTKAKDLFIGDVIHNAGPHRDKKLKYYIPEVVYSGLYPPYAGGGGFLYSGHLALRLYHITDQVHLYPIDDVYTGMCLQKLGLVPEKHKGFRTFDIEEKNKNNICSYVDLMLVHSRKPQEMIDIWSQLQSAHLKC
notes: Bait of the co-IP; pulled down with mouse anti-FLAG (Millipore Sigma F3165) from cell lysate; also called N-FLAG B3GNT2; N-term FLAG; not shown: N-terminal FLAG tag
0: all assays above
